Assay results from patent US12379386B2, “Antibodies to 25-hydroxyvitamin D2 and D3 for detecting total 25-hydroxyvitamin D” (Siemens Healthcare Diagnostics Inc., priority 2011, dated 2025).

Key:
Format in all cases: binding
[1] = system: Vit D C22-Diaminobutane-Suberoyl-KLH; assay: 10H9 hybridoma supernatant ELISA on coated plate, no competing antigen; conditions: Ag 0, coat 50 ng/mL
Procedure: (§1) Following isolation of hybridoma clones, studies were conducted to determine the relative ability of the antibodies to bind to both 25-hydroxyvitamin D2 and 25-hydroxyvitamin D3. To assess this, antibody displacement assays were conducted to determine the degree to which binding between vitamin D-C22 BSA and a reactive antibody raised against the antigen (10H9) could be disrupted by the presence of 25-hydroxyvitamin D2 or 25-hydroxyvitamin D3. Cell culture supernatant from the 10H9 hybridoma cell lines producing antibodies reactive to vitamin D-C22 BSA were coincubated in the presence or absence of 25-hydroxyvitamin D2 or 25-hydroxyvitamin D3 on microtiter plates coated with vitamin D-C22 KLH for 1 hour. After washing the plates, goat anti-mouse IgG-HRPO was added and incubated for 30 minutes. Plates were washed and then incubated with tetramethyl benzidine (TMB). The generated color was stopped using 1N sulfuric acid and the optical density was measured at 450 nm.

[2] = Antibody displacement assay, 10H9 supernatant, competitor 25-hydroxyvitamin D2; conditions: for optical density at 450 nm: 25 OH-D2 0.4 μg/mL, coat Vit D C22-Diaminobutane-Suberoyl-KLH 50 ng/mL
Procedure: as §1

[3] = Antibody displacement assay, 10H9 supernatant, competitor 25-hydroxyvitamin D3; conditions: for optical density at 450 nm: 25 OH-D3 0.4 μg/mL, coat Vit D C22-Diaminobutane-Suberoyl-KLH 50 ng/mL
Procedure: as §1

[4] = Displacement assay with purified coated 10H9 and alkaline phosphatase tracer, competitor 25-hydroxyvitamin D2; conditions: for optical density at 405 nm: MAb coat 1 ug/mL
Procedure: (§2) Next, displacement experiments were conducted using purified antibody, rather than cell supernatant. In this experiment, the antibody of interest was coated directly on the microtiter plate via a two-hour incubation. Coated plates were washed and then coincubated with either 25-hydroxyvitamin D2 or 25-hydroxyvitamin D3 in the presence of alkaline phosphatase-conjugated vitamin D-C22 BSA. After 30 minutes the plates were washed and color was developed by adding the substrate p-nitrophenyl phosphate (PNPP). Optical density colored solution was measured at 405 nm.

[5] = Displacement assay with purified coated 10H9 and alkaline phosphatase tracer, competitor 25-hydroxyvitamin D3; conditions: for optical density at 405 nm: MAb coat 1 ug/mL
Procedure: as §2

optical density at 450 nm ([2]; supernatant dilution 1:4): 0.323
optical density at 450 nm ([2]; supernatant dilution 1:16): 0.154
optical density at 450 nm ([2]; supernatant dilution 1:64): 0.097
optical density at 450 nm ([2]; supernatant dilution 1:256): 0.086
optical density at 450 nm ([3]; supernatant dilution 1:4): 0.384
optical density at 450 nm ([3]; supernatant dilution 1:16): 0.176
optical density at 450 nm ([3]; supernatant dilution 1:64): 0.105
optical density at 450 nm ([3]; supernatant dilution 1:256): 0.090
optical density at 405 nm ([4]; 25OH-VIT D2 0 ng/ml): 1.277
optical density at 405 nm ([4]; 25OH-VIT D2 5 ng/ml): 1.189
optical density at 405 nm ([4]; 25OH-VIT D2 10 ng/ml): 1.007
optical density at 405 nm ([4]; 25OH-VIT D2 25 ng/ml): 0.771
optical density at 405 nm ([4]; 25OH-VIT D2 100 ng/ml): 0.106
optical density at 405 nm ([4]; 25OH-VIT D2 200 ng/ml): 0.080
optical density at 405 nm ([4]; 25OH-VIT D2 400 ng/ml): 0.069
optical density at 405 nm ([4]; 25OH-VIT D2 1000 ng/ml): 0.063
optical density at 405 nm ([5]; 25OH-VIT D3 0 ng/ml): 1.213
optical density at 405 nm ([5]; 25OH-VIT D3 5 ng/ml): 1.083
optical density at 405 nm ([5]; 25OH-VIT D3 10 ng/ml): 0.800
optical density at 405 nm ([5]; 25OH-VIT D3 25 ng/ml): 0.519
optical density at 405 nm ([5]; 25OH-VIT D3 100 ng/ml): 0.115
optical density at 405 nm ([5]; 25OH-VIT D3 200 ng/ml): 0.089
optical density at 405 nm ([5]; 25OH-VIT D3 400 ng/ml): 0.077
optical density at 405 nm ([5]; 25OH-VIT D3 1000 ng/ml): 0.069
B1: 10H9: murine monoclonal antibody from the 10H9 hybridoma, raised against vitamin D-C22 BSA; binds 25-hydroxyvitamin D2 and D3 (antibody, V domains shown)
VH: VQLLESGPELVKPGASMKISCKASGYSFTDYTMNWVKQSHGKNLEWIGLINPYNGFTIYNQKFKGKATLTVDKSSSTAYMELLSLTSEDSAVYYFIRAHYDGRVFWGQGTTLTVSS
VL: CELVMTQSPLSLPVSLGDQASVSCRSSQSLVHSNGNTYLHRYLQKPGQSPKLLIYQVSNRFSGVPDRFSGSGSGTDFTLKITRVEAEDLGVYFCSQITHFPPTFGGGTKLEIKR
modifications: Description of Unknown: 10H9 monoclonal antibody heavy chain variable region polypeptide; Description of Unknown: 10H9 monoclonal antibody light chain variable region polypeptide
optical density at 450 nm ([1]; supernatant dilution 1:4): 1.997
optical density at 450 nm ([1]; supernatant dilution 1:16): 1.244
optical density at 450 nm ([1]; supernatant dilution 1:64): 0.672
optical density at 450 nm ([1]; supernatant dilution 1:256): 0.313
disruption of antibody binding by coincubation ([2]; 10H9 supernatant, 25-hydroxyvitamin D2): disrupted in a concentration-dependent manner
disruption of antibody binding by coincubation ([3]; 10H9 supernatant, 25-hydroxyvitamin D3): disrupted in a concentration-dependent manner
disruption of 10H9 binding to vitamin D-C22 BSA by coincubation ([4]; purified antibody, 25-hydroxyvitamin D2): disrupted in a concentration-dependent manner
disruption of 10H9 binding to vitamin D-C22 BSA by coincubation ([5]; purified antibody, 25-hydroxyvitamin D3): disrupted in a concentration-dependent manner
